Drawing on publication PMC5694763, this text covers Kd for two substances.

One may read the Kd as the free concentration of one partner at which half of the binding sites on the other are occupied at equilibrium, for simple one-to-one binding.

A value given as a limit tells only on which side of the number the result lay.

The data set concerns the target dCas9 (SpCas9 D10A/H840A) D10A;H840A (Streptococcus pyogenes) (UniProt Q99ZW2). The experiment in a line: SPR. The conditions noted are these: SPR: PBS, 0.005% Tween-20, 25 C, BLI: PBS, 0.005% Tween-20, 1 mM MgCl2, 50 ug/ml heparin, SwitchSENSE: 20 mM Tris pH 7.4, 100 mM KCl, 5 mM MgCl2, 0.01% ….

Regarding “AGCACTGCACGCCGUAGGUCGUUUTAGAGCTATGCTGTTTTG [GFP cr1 crHyb with tracrRNA]”, the equilibrium dissociation constant (Kd) (DNA with 7 RNA residues (1,15,16,19,22,23,24)) was less than 1 nM.

On to tracrRNA (88 nt), for which the dissociation constant (Kd) is, setting by setting: (dCas9 immobilised, 1.2-100 nM titration) 6.2 nM; (dCas9 immobilised, kinetic 1:1 fit) 0.308 nM.
